Data taken from article PMC5534098, “Modulation of chromatin structure by the FACT histone chaperone complex regulates HIV-1 integration” (Retrovirology, 2017).

Molecular target: T1, FACT (FAcilitates Chromatin Transcription) complex, recombinant purified (human | , UniProt Q9Y5B9 1-1047; Q08945 1-709)
T1 construct: also called FACT complex; source: recombinant, purified as reported before [17, 18]
Assay: pull-down
Conditions: both partners purified

T1 sequence (Q9Y5B9 whole entry, chain 1 of 2): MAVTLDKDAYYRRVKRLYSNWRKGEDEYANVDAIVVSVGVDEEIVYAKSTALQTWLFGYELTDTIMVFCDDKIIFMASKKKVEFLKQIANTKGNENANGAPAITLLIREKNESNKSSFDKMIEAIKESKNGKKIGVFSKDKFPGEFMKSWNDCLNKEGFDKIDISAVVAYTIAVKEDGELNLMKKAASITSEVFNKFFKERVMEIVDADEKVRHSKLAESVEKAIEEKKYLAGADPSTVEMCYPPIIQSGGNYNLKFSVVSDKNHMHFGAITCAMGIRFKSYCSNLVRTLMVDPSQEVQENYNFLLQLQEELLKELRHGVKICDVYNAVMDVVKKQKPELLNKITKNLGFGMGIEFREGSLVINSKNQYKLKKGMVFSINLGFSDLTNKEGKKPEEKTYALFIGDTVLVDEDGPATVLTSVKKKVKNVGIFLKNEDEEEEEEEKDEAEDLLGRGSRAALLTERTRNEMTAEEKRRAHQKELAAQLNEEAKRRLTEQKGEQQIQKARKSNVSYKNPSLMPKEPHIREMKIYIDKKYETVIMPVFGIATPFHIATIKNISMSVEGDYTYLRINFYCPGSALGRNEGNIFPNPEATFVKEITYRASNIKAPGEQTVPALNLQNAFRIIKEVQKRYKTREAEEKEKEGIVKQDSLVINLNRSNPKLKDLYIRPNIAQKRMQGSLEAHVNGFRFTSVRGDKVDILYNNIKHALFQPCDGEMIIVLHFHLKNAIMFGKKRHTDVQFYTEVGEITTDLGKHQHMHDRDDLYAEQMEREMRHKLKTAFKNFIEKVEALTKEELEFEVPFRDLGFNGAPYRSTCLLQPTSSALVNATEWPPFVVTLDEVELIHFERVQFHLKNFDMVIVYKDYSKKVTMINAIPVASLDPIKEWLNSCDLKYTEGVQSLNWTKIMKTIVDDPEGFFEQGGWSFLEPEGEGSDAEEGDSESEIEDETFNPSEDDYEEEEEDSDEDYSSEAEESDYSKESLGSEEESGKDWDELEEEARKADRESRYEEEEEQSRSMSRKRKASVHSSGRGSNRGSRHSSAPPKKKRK
T1 sequence (Q08945 whole entry, chain 2 of 2): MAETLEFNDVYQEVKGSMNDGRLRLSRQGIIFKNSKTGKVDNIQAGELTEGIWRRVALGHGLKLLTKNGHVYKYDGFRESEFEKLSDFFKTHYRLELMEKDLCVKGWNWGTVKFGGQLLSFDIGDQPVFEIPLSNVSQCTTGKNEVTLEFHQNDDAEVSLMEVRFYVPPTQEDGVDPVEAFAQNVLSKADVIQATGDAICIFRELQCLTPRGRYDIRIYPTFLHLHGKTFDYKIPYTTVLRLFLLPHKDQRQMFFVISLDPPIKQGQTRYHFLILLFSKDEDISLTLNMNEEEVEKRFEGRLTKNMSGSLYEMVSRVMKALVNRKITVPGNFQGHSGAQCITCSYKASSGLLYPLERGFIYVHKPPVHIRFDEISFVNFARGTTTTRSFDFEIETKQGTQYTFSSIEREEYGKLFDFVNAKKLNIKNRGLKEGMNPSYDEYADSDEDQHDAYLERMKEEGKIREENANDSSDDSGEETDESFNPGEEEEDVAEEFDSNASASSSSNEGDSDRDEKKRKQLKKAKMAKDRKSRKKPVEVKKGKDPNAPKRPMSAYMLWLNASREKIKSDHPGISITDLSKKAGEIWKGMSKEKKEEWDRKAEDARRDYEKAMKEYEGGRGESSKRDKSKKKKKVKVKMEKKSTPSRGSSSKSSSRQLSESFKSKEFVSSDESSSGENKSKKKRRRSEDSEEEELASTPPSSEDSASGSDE

B1: LEDGF/p75-GST (natural protein)
chain: not shown
  binding result: binds
